{"source": "paper PMC10965056", "test_system": "T1, PsdR-His (Pseudomonas aeruginosa PAO1?), ORF:604e189e", "T1 sequence": "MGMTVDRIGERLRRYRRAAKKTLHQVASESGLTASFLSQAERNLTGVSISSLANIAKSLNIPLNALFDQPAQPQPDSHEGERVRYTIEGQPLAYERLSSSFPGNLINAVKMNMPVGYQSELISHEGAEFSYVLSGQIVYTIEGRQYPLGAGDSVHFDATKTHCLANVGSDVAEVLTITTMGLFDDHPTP", "test": "EMSA", "conditions": "10 mM Tris-HCl pH 7.5, 50 mM KCl, 1 mM DTT, 1% glycerin, 10 mM MgCl2, 1 ug/ul poly(dI-dC), 25 C, 30 min; 6.5% polyacrylamide gel"}
{"sequence": "CGGGTATCGTACTAGGTGCATCAAACGCTGCGGTCTATTGTTAAGTGGGACTGAAATGTGCCTTTCCGGCACAACGCCAACTCTATAGA (double strand) [PlasR-WT]", "values": [{"measurement": "binding", "value": "binds"}]}
